In patent US20170313746A1 (published 2017):
Values belong to the binder of their own block, whether it stands above or below them. Non-standard residues stand in square brackets, D forms with d. Phe(4-guanidino) = N=C(N)Nc1ccc(C[C@H](N)C(=O)O)cc1

Biological target: lactate dehydrogenase (LDH) in lysates of NCI-H460 cells (human, UniProt P00338 2-332)
Experiment: cell-based or functional assay

- IC50 of LDH activity (LDH activity kit on lysates of treated NCI-H460 cells): 22 µM
B1: HILR-030 (cyclo-[Pro-Arg-Gly-Pro-Arg-Pro-Val-Trp-Trp-Gpa-Gpa-Trp-Trp-Gpa-Gpa-Trp-Trp]) (peptide)
peptide: cyclo(PRGPRPVWW[Phe(4-guanidino)][Phe(4-guanidino)]WW[Phe(4-guanidino)][Phe(4-guanidino)]WW)
SMILES: CC(C)[C@@H]1NC(=O)[C@@H]2CCCN2C(=O)[C@H](CCCNC(=N)N)NC(=O)[C@@H]2CCCN2C(=O)CNC(=O)[C@H](CCCNC(=N)N)NC(=O)[C@@H]2CCCN2C(=O)[C@H](Cc2c[nH]c3ccccc23)NC(=O)[C@H](Cc2c[nH]c3ccccc23)NC(=O)[C@H](Cc2ccc(NC(=N)N)cc2)NC(=O)[C@H](Cc2ccc(NC(=N)N)cc2)NC(=O)[C@H](Cc2c[nH]c3ccccc23)NC(=O)[C@H](Cc2c[nH]c3ccccc23)NC(=O)[C@H](Cc2ccc(NC(=N)N)cc2)NC(=O)[C@H](Cc2ccc(NC(=N)N)cc2)NC(=O)[C@H](Cc2c[nH]c3ccccc23)NC(=O)[C@H](Cc2c[nH]c3ccccc23)NC1=O

- IC50 of LDH activity (LDH activity kit on lysates of treated NCI-H460 cells): 16 µM
Binder: PRGPRPVWWRRWWRRWW (head-to-tail cyclic peptide) [HILR-025 (cyclo-[Pro-Arg-Gly-Pro-Arg-Pro-Val-Trp-Trp-Arg-Arg-Trp-Trp-Arg-Arg-Trp-Trp])]
